Data taken from patent publication US20120219567A1 (Biogen, published 2012).

Biological target: T1, AP-Nogo-66 (UniProt Q9NQC3 1055-1120)
T1 construct: domain: Nogo-66; also called AP-Ng-66; Nogo-66 ligand; not shown: alkaline phosphatase (AP) moiety
T1 sequence (looked up): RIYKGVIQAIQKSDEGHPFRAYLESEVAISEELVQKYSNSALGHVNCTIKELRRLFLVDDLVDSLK
Experiment: AP-ligand binding to transfected COS-7 cells
Protocol: In order to probe the NgR domains that interact with Aβ and Nogo-66, a strategy based on the crystal structure of NgR was employed. A number of human NgR surface-accessible residues were mutated to Ala either individually or as groups of adjacent residues (Table 3), and resultant ligand binding characteristics were assessed. The ligand concentrations were AP, 30 nM, AP-Nogo-66, 5 nM, AP-Aβ(1-28), 50 nM. NgR mutagenesis has been previously described. Hu et al., J Neurosci 25:5298-5304 (2005); Fournier et al., J Neurosci 23:1416-1423 (2003). The expression of each mutant NgR protein was verified by immunohistochemical detection at the surface of cells transfected with expression vector (FIG. 2a). Bound AP was stained and measured using NIH image software. Mutants of human NgR were detected on the surface of transfected COS-7 immunofluorescently. For each of the mutants with altered binding characteristics, expression of immunoreactive NgR protein with electrophoretic mobility similar to wild type was also confirmed by immunoblot (FIG. 2c). Whole COS-7 cell lysates expressing NgR mutants were subjected to SDS-PAGE and blotted with anti-NgR antibodies. The mobility of each mutant was indistinguishable from wild type NgR, except for the mutations in N-linked glycosylation sites (N82 and N179). The binding of both AP-Aβ(1-28) and AP-Nogo-66 ligands to cells expressing this collection of NgR mutant proteins was assessed at concentrations equal to the predetermined Kd's of the ligands (FIG. 2b, d).

Binder	binding result
human NgR mutant 158, 160 (mutated to alanine) (receptor) CPGACVCYNEPKVTTSCPQQGLQAVPVGIPAASQRIFLHGNRISHVPAASFRACRNLTILWLHSNVLARIDAAAFTGLALLEQLDLSDNAQLRSVDPATFHGLGRLHTLHLDRCGLQELGPGLFRGLAALQALALQDNALQALPDDTFRDLGNLTHLFLHGNRISSVPERAFRGLHSLDRLLLHQNRVAHVHPHAFRDLGRLMTLYLFANNLSALPTEALAPLRALQYLRLNDNPWVCDCRARPLWAWLQKFRGSSSEVPCSLPQRLAGRDLKRLAANDLQGCAVATGPYHPIWTGRATDEEPLGLPKCCQPDAADKASVLEPGRPASAGNALKGRVPPGDSPPGNGSGPRHINDSPFGTLPGSAEPPLTAVRPEGSEPPGFPTSGPRRRPGCSRKNRTRSHCRLGQAGSGGGGTGDSE	no binding (tested: 5 nM)
human NgR mutant 182, 186 (mutated to alanine) (receptor) CPGACVCYNEPKVTTSCPQQGLQAVPVGIPAASQRIFLHGNRISHVPAASFRACRNLTILWLHSNVLARIDAAAFTGLALLEQLDLSDNAQLRSVDPATFHGLGRLHTLHLDRCGLQELGPGLFRGLAALQYLYLQDNALQALPDDTFRDLGNLTALFLAGNRISSVPERAFRGLHSLDRLLLHQNRVAHVHPHAFRDLGRLMTLYLFANNLSALPTEALAPLRALQYLRLNDNPWVCDCRARPLWAWLQKFRGSSSEVPCSLPQRLAGRDLKRLAANDLQGCAVATGPYHPIWTGRATDEEPLGLPKCCQPDAADKASVLEPGRPASAGNALKGRVPPGDSPPGNGSGPRHINDSPFGTLPGSAEPPLTAVRPEGSEPPGFPTSGPRRRPGCSRKNRTRSHCRLGQAGSGGGGTGDSE	no binding (tested: 5 nM)
human NgR mutant 211, 213 (mutated to alanine) (receptor) CPGACVCYNEPKVTTSCPQQGLQAVPVGIPAASQRIFLHGNRISHVPAASFRACRNLTILWLHSNVLARIDAAAFTGLALLEQLDLSDNAQLRSVDPATFHGLGRLHTLHLDRCGLQELGPGLFRGLAALQYLYLQDNALQALPDDTFRDLGNLTHLFLHGNRISSVPERAFRGLHSLDRLLLHANAVAHVHPHAFRDLGRLMTLYLFANNLSALPTEALAPLRALQYLRLNDNPWVCDCRARPLWAWLQKFRGSSSEVPCSLPQRLAGRDLKRLAANDLQGCAVATGPYHPIWTGRATDEEPLGLPKCCQPDAADKASVLEPGRPASAGNALKGRVPPGDSPPGNGSGPRHINDSPFGTLPGSAEPPLTAVRPEGSEPPGFPTSGPRRRPGCSRKNRTRSHCRLGQAGSGGGGTGDSE	no binding (tested: 5 nM)
human NgR mutant 232, 234 (mutated to alanine) (receptor) CPGACVCYNEPKVTTSCPQQGLQAVPVGIPAASQRIFLHGNRISHVPAASFRACRNLTILWLHSNVLARIDAAAFTGLALLEQLDLSDNAQLRSVDPATFHGLGRLHTLHLDRCGLQELGPGLFRGLAALQYLYLQDNALQALPDDTFRDLGNLTHLFLHGNRISSVPERAFRGLHSLDRLLLHQNRVAHVHPHAFRDLGRLMTLALAANNLSALPTEALAPLRALQYLRLNDNPWVCDCRARPLWAWLQKFRGSSSEVPCSLPQRLAGRDLKRLAANDLQGCAVATGPYHPIWTGRATDEEPLGLPKCCQPDAADKASVLEPGRPASAGNALKGRVPPGDSPPGNGSGPRHINDSPFGTLPGSAEPPLTAVRPEGSEPPGFPTSGPRRRPGCSRKNRTRSHCRLGQAGSGGGGTGDSE	no binding (tested: 5 nM)
human NgR mutant 111, 113, 114 (mutated to alanine) (receptor) CPGACVCYNEPKVTTSCPQQGLQAVPVGIPAASQRIFLHGNRISHVPAASFRACRNLTILWLHSNVLARIDAAAFTGLALLEQLALAANAQLRSVDPATFHGLGRLHTLHLDRCGLQELGPGLFRGLAALQYLYLQDNALQALPDDTFRDLGNLTHLFLHGNRISSVPERAFRGLHSLDRLLLHQNRVAHVHPHAFRDLGRLMTLYLFANNLSALPTEALAPLRALQYLRLNDNPWVCDCRARPLWAWLQKFRGSSSEVPCSLPQRLAGRDLKRLAANDLQGCAVATGPYHPIWTGRATDEEPLGLPKCCQPDAADKASVLEPGRPASAGNALKGRVPPGDSPPGNGSGPRHINDSPFGTLPGSAEPPLTAVRPEGSEPPGFPTSGPRRRPGCSRKNRTRSHCRLGQAGSGGGGTGDSE	no binding (tested: 5 nM)
human NgR mutant 182, 186, 210 (mutated to alanine) (receptor) CPGACVCYNEPKVTTSCPQQGLQAVPVGIPAASQRIFLHGNRISHVPAASFRACRNLTILWLHSNVLARIDAAAFTGLALLEQLDLSDNAQLRSVDPATFHGLGRLHTLHLDRCGLQELGPGLFRGLAALQYLYLQDNALQALPDDTFRDLGNLTALFLAGNRISSVPERAFRGLHSLDRLLLAQNRVAHVHPHAFRDLGRLMTLYLFANNLSALPTEALAPLRALQYLRLNDNPWVCDCRARPLWAWLQKFRGSSSEVPCSLPQRLAGRDLKRLAANDLQGCAVATGPYHPIWTGRATDEEPLGLPKCCQPDAADKASVLEPGRPASAGNALKGRVPPGDSPPGNGSGPRHINDSPFGTLPGSAEPPLTAVRPEGSEPPGFPTSGPRRRPGCSRKNRTRSHCRLGQAGSGGGGTGDSE	no binding (tested: 5 nM)
human NgR mutant 111, 113, 114, 138 (mutated to alanine) (receptor) CPGACVCYNEPKVTTSCPQQGLQAVPVGIPAASQRIFLHGNRISHVPAASFRACRNLTILWLHSNVLARIDAAAFTGLALLEQLALAANAQLRSVDPATFHGLGRLHTLHLARCGLQELGPGLFRGLAALQYLYLQDNALQALPDDTFRDLGNLTHLFLHGNRISSVPERAFRGLHSLDRLLLHQNRVAHVHPHAFRDLGRLMTLYLFANNLSALPTEALAPLRALQYLRLNDNPWVCDCRARPLWAWLQKFRGSSSEVPCSLPQRLAGRDLKRLAANDLQGCAVATGPYHPIWTGRATDEEPLGLPKCCQPDAADKASVLEPGRPASAGNALKGRVPPGDSPPGNGSGPRHINDSPFGTLPGSAEPPLTAVRPEGSEPPGFPTSGPRRRPGCSRKNRTRSHCRLGQAGSGGGGTGDSE	no binding (tested: 5 nM)
human NgR mutant 182, 186, 158, 160 (mutated to alanine) (receptor) CPGACVCYNEPKVTTSCPQQGLQAVPVGIPAASQRIFLHGNRISHVPAASFRACRNLTILWLHSNVLARIDAAAFTGLALLEQLDLSDNAQLRSVDPATFHGLGRLHTLHLDRCGLQELGPGLFRGLAALQALALQDNALQALPDDTFRDLGNLTALFLAGNRISSVPERAFRGLHSLDRLLLHQNRVAHVHPHAFRDLGRLMTLYLFANNLSALPTEALAPLRALQYLRLNDNPWVCDCRARPLWAWLQKFRGSSSEVPCSLPQRLAGRDLKRLAANDLQGCAVATGPYHPIWTGRATDEEPLGLPKCCQPDAADKASVLEPGRPASAGNALKGRVPPGDSPPGNGSGPRHINDSPFGTLPGSAEPPLTAVRPEGSEPPGFPTSGPRRRPGCSRKNRTRSHCRLGQAGSGGGGTGDSE	no binding (tested: 5 nM)
human NgR mutant 189, 191, 211, 213 (mutated to alanine) (receptor) CPGACVCYNEPKVTTSCPQQGLQAVPVGIPAASQRIFLHGNRISHVPAASFRACRNLTILWLHSNVLARIDAAAFTGLALLEQLDLSDNAQLRSVDPATFHGLGRLHTLHLDRCGLQELGPGLFRGLAALQYLYLQDNALQALPDDTFRDLGNLTHLFLHGNAIASVPERAFRGLHSLDRLLLHANAVAHVHPHAFRDLGRLMTLYLFANNLSALPTEALAPLRALQYLRLNDNPWVCDCRARPLWAWLQKFRGSSSEVPCSLPQRLAGRDLKRLAANDLQGCAVATGPYHPIWTGRATDEEPLGLPKCCQPDAADKASVLEPGRPASAGNALKGRVPPGDSPPGNGSGPRHINDSPFGTLPGSAEPPLTAVRPEGSEPPGFPTSGPRRRPGCSRKNRTRSHCRLGQAGSGGGGTGDSE	no binding (tested: 5 nM)
human NgR mutant 211, 213, 237, 256, 259, 284 (mutated to alanine) (receptor) CPGACVCYNEPKVTTSCPQQGLQAVPVGIPAASQRIFLHGNRISHVPAASFRACRNLTILWLHSNVLARIDAAAFTGLALLEQLDLSDNAQLRSVDPATFHGLGRLHTLHLDRCGLQELGPGLFRGLAALQYLYLQDNALQALPDDTFRDLGNLTHLFLHGNRISSVPERAFRGLHSLDRLLLHANAVAHVHPHAFRDLGRLMTLYLFANALSALPTEALAPLRALQYLALNANPWVCDCRARPLWAWLQKFRGSSSAVPCSLPQRLAGRDLKRLAANDLQGCAVATGPYHPIWTGRATDEEPLGLPKCCQPDAADKASVLEPGRPASAGNALKGRVPPGDSPPGNGSGPRHINDSPFGTLPGSAEPPLTAVRPEGSEPPGFPTSGPRRRPGCSRKNRTRSHCRLGQAGSGGGGTGDSE	no binding (tested: 5 nM)
human NgR mutant 171, 172, 175, 176, 196, 199, 220, 223, 224, 250 (mutated to alanine) (receptor, Label runs over two printed rows (r20c1 and r21c1)) CPGACVCYNEPKVTTSCPQQGLQAVPVGIPAASQRIFLHGNRISHVPAASFRACRNLTILWLHSNVLARIDAAAFTGLALLEQLDLSDNAQLRSVDPATFHGLGRLHTLHLDRCGLQELGPGLFRGLAALQYLYLQDNALQALPAATFAALGNLTHLFLHGNRISSVPEAAFAGLHSLDRLLLHQNRVAHVHPAAFAALGRLMTLYLFANNLSALPTEALAPLAALQYLRLNDNPWVCDCRARPLWAWLQKFRGSSSEVPCSLPQRLAGRDLKRLAANDLQGCAVATGPYHPIWTGRATDEEPLGLPKCCQPDAADKASVLEPGRPASAGNALKGRVPPGDSPPGNGSGPRHINDSPFGTLPGSAEPPLTAVRPEGSEPPGFPTSGPRRRPGCSRKNRTRSHCRLGQAGSGGGGTGDSE	no binding (tested: 5 nM)
